Assay results from patent US20210095028A1 (NANJING LEGEND BIOTECH, published 2021).
Changes are numbered by the printed parent chain.

T1: Human TIGIT protein with HIS tag (human, UniProt Q495A1 22-141)
T1 construct: A soluble analyte is probably only the extracellular part; also called human TIGIT recombinant protein; not shown: HIS tag
T1 sequence: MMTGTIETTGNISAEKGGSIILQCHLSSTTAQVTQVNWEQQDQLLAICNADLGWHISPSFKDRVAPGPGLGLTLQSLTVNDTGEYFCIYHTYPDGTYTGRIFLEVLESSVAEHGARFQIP

T2: human TIGIT over-expressed on cells (human, UniProt Q495A1 22-244)
T2 construct: also called CHO-K1/human TIGIT cells; CHO cells expressing human TIGIT
T2 sequence: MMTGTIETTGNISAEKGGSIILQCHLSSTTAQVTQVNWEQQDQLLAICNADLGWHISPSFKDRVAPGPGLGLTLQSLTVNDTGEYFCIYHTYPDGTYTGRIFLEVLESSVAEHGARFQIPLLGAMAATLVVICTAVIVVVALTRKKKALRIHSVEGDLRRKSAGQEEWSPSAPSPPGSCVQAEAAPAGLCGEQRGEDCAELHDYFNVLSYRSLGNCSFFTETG

B1: 100C4E7D11 (antibody, V domains shown)
VH: EVMLVESGGGLVKPGGSLKLSCAASGFTFSFYTMSWVRQTPEKRLEWVATISSGGGSTYYSDSVKGRFTISRDNAKNNLYLQMTSLRSEDTALYYCSRSLPVDYWGQGTTLTVSS
VL: QIVLTQSPAIMSASLGERVTMTCTASSSVSSTYLHWYQQKPGSSPKLWIYSTSNLASGVPARFSGSGSGTSYSLTISSMEAEDAATYYCHLYHHSPYTFGGGTKLEIK
notes: Mouse monoclonal antibody; also called mouse anti-human TIGIT monoclonal antibody 100C4E7D11
B2: 83G6H11C12 (antibody, V domains shown)
VH: B1 VH
VL: B1 VL with T32S
notes: Mouse monoclonal antibody; also called mouse anti-human TIGIT monoclonal antibody 83G6H11C12
B3: 139E2C2D2 (antibody, V domains shown)
VH: EVQLVESGGDLVKPGGSLKLSCAASGFTFSSYGMSWVRQTPDKRLEWVAIISSGGNYTYYPDSVKGRFTISRDNAKNTLYLQMSSLKSEDTAMYYCARQIHYFFAMDYWGQGTSVTVSS
VL: DIQMTQSPASLSVSVGETVTITCRASENIYSNLAWYQQKQGKSPQLLVYAATNLADGAPSRFSGSRSGTQYSLKINSLQSEDFGSYYCQHFWGTAYTFGGGTKLEIK
notes: Mouse monoclonal antibody; also called mouse anti-human TIGIT monoclonal antibody 139E2C2D2
B4: 128E3G7F5 (antibody, V domains shown)
VH: EVLLQQSGPELVKTGASVKISCKASGYSFTAYYMHWVKQSHGKSLEWIGYISCYNGATTYNQKFKGKATFTVDTSSTTAYMQFNSLTSEDSAVYYCARRVYYGYDEALVYWGQGTSVTVSS
VL: DIVMTQSPSSLSVSAGEKVTMTCKSSQSLLNSGNQKNYLAWYQQKPGQPPKLLIYGASTRGSGVPDRFTGSGSGTDFTLTISSVQAEDLAVYYCQNDHSYPYTFGGGTKLEIK
notes: Mouse monoclonal antibody; also called mouse anti-human TIGIT monoclonal antibody 128E3G7F5
B5: 70A11A8E6 (antibody, V domains shown)
VH: DVQLQESGPGLVKPSQSLSLTCTVTGYSITSDYAWNWIRQFPGNKLEWMGYIIYSGSTSYNPSLKSRISITRDTSKNQFFLQLNSVTTEDTATYYCARGWFRRPDYWGQGTTLTVSS
VL: DIVMTQSHEFMSTSLGDRVSITCKASQDVSTAVAWHQQKPGQSPKQLIYSASYRYTGVPDRFTGSGSGTDFTFTISNMQAEDLAVYYCQQHYSVPLTFGAGTKLELK
notes: Mouse monoclonal antibody; also called mouse anti-human TIGIT monoclonal antibody 70A11A8E6
B6: 11D8E12A4 (antibody, V domains shown)
VH: EVLLQQSGPELVKPGASVKIPCKASGYTFTDYNMDWVKQSHGKSLEWIGDINPNNGGTIYNQKFKGKATLTVDKSSSTAYMELRSLTSEDTAVYYCARRWLLLVYTMDYWGQGTSVTVSS
VL: QIVLTQSPAIMSASPGEKVTISCSASSSVSYMYWYQQKPGSSPKPWIYRTSNLASGVPARFSGSGSGTSYSLTISSMEAEDAATYYCHQYHNYPPTFGGGTKLEIK
notes: Mouse monoclonal antibody; also called mouse anti-human TIGIT monoclonal antibody 11D8E12A4
B7: 16F10H12C11 (antibody, V domains shown)
VH: B6 VH with M34I, N55T, T106A, M107V
VL: B6 VL with S30T, P39A, S62G, H88Q, N92S, Y93F
notes: Mouse monoclonal antibody; also called mouse anti-human TIGIT monoclonal antibody 16F10H12C11
B8: 8F2D8E7 (antibody, V domains shown)
VH: QVQLQQSGAELVKPGASVKLSCKTSGYTFTSYWIQWIKQRPGQGLGWIGEIFPGTGTTYYNEKFKGKATLTIDTSSSTAYMQLSSLTSEDSAVYSCARSRDGKVVDYWGQGTSVTVSS
VL: DVQMTQTTSSLSASLGDRVTISCRASQDISNFLNWYQQRPDGTVKLLIYYTSKLHSGVPSRFSGSGSGTDYSLTIRNLEKEDIATYFCQQGNTPPYTFGGGTKLEIK
notes: Mouse monoclonal antibody; also called mouse anti-human TIGIT monoclonal antibody 8F2D8E7
B9: 48B5G4E12 (antibody, V domains shown)
VH: QVQLQQPGAELVKPGASVKMSCKASGYTFTSYNMHWVKQTPGQGLEWIGGIYPGNGATSYNQKFKGKATLTADKSSSTAYMQLSSLTSEDSAVYYCARSGLRAMDYWGQGTSVTVSS
VL: QIVLTQSPAIMSASPGEKVTMTCSASSSVSYMYWYQQKTGSSPRLLIYDTSNLASGVPVRFSGSGSGTSYSLTISRMEAEDAATYYCQQWSSYPYTFGGGTKLEIK
notes: Mouse monoclonal antibody; also called mouse anti-human TIGIT monoclonal antibody 48B5G4E12

Target: T1, Human TIGIT protein with HIS tag
Experiment: SPR Biacore T200; antibody Fc-captured, TIGIT-His analyte
Method: Binding kinetics of mouse anti-human TIGIT monoclonal antibodies to human TIGIT were determined using a Surface Plasmon Resonance (SPR) biosensor, BIACORE® T200 (GE Healthcare; Little Chalfont, United Kingdom). […] Each mouse anti-human TIGIT monoclonal antibody was immobilized on the sensor chip through the Fc capture method. Human TIGIT protein with HIS tag was used as the analyte. The dissociation (kd) and association (kₐ) rate constants were obtained using the BIACORE® T200 evaluation software. The apparent equilibrium dissociation constants (KD) were calculated from the ratio of kd over kₐ.

Binder | Kd [nM] | koff [s⁻¹] | kon [M⁻¹ s⁻¹]
B1 | 0.51 | 0.00033 | 650000
B2 | 0.7 | 0.00043 | 610000
B3 | 3 | 0.0062 | 2.1e+06
B4 | 6.7 | 0.008 | 1.2e+06
B5 | 5.2 | 0.0044 | 860000
B6 | 14 | 0.0087 | 640000
B7 | 18 | 1.2 | 6.7e+07
B8 | 2.6 | 0.0033 | 1.3e+06
B9 | 11 | 0.0088 | 840000

Target: T2, human TIGIT over-expressed on cells
Experiment: FACS, CHO-K1 cells over-expressing human TIGIT
Method: (§1) The mixture was equilibrated for 30 minutes at room temperature and washed three times with FACS buffer (PBS containing 1% BSA). iFluor labeled goat anti-mouse IgG as the secondary antibody was added and incubated at room temperature for 45 min. Finally, the cells were washed 3 time with PBS, and the signal was read by FACS BD Calibur. Data was analyzed with PRISM™ (GraphPad Software, San Diego, Calif.) using non-linear regression and EC₅₀ values were calculated.

Binder | Bottom (best-fit) | EC50 [nM] | Top (best-fit)
B1 | 14 | 0.81 | 107
B2 | 9.57 | 0.68 | 115
B3 | 13.8 | 0.37 | 89.9
B4 | 16.2 | 0.3 | 98.7
B5 | 11 | 0.96 | 263
B6 | 8.3 | 16.3 | 159
B7 | 6.83 | 11.2 | 188
B8 | 12.9 | 1.28 | 276
B9 | 9.18 | 3.15 | 346

Target: T2, human TIGIT over-expressed on cells
Experiment: cell-based or functional assay

Binder | luciferase signal in T cell activation, Bottom (best-fit) | luciferase signal in T cell activation, EC50 [nM] | luciferase signal in T cell activation, Top (best-fit)
B1 | 11.6 | 3.46 | 117
B2 | 9.6 | 4.4 | 145
B4 | 4.5 | 8.54 | 99

Target: T3, cynomolgus TIGIT over-expressed on CHO-K1 cells (cynomolgus, UniProt A0A7N9I9V4 89-312)
T3 construct: whole, on cells; also called CHO-K1/cynomolgus TIGIT cells
Experiment: FACS, CHO-K1 cells over-expressing cynomolgus TIGIT
Method: as §1

T3 sequence (A0A7N9I9V4 entry or part of it): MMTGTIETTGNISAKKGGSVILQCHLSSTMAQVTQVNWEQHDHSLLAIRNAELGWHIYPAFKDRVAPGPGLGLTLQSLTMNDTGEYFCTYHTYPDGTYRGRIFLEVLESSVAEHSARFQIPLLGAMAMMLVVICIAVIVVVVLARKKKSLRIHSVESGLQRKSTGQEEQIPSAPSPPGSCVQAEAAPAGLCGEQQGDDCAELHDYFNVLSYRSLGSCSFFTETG

Binder | Bottom (best-fit) | EC50 [nM] | Top (best-fit)
B1 | 16.9 | 1.16 | 410
B2 | 16.1 | 1 | 326
B3 | 7.6 | 18.5 | 53.8
B4 | 7.5 | 8.38 | 66.2

Target: T2, human TIGIT over-expressed on cells
Experiment: cell-based or functional assay
Remark: another data set of the same source

Binder | IL-2 secretion in T cell activation, Bottom (best-fit) | IL-2 secretion in T cell activation, EC50 [nM] | IL-2 secretion in T cell activation, Top (best-fit)
B1 | 107 | 0.98 | 191
B2 | 104 | 0.83 | 171

Target: T2, human TIGIT over-expressed on cells
Experiment: competition FACS, CHO cells expressing human TIGIT; competitor PVR recombinant protein
Method: The mixture was equilibrated for 30 minutes at room temperature, and washed three times with FACS buffer (PBS containing 1% BSA). PE/Cy5 Streptavidin secondary antibody was then added to the mixtures and incubated for 15 minutes at room temperature. Subsequently, the cells were washed with FACS buffer and analyzed by flow cytometry. Data was analyzed with PRISM™ (GraphPad Software, San Diego, Calif.) using non-linear regression, and IC₅₀ values were calculated (FIGS. 4A-4B and Table 6).

Binder | Bottom (best-fit) | IC50 [nM] | Top (best-fit)
B1 | 12.9 | 1.2 | 66.5
B2 | 12.9 | 0.7 | 70.2
B3 | 10.4 | 0.7 | 73.8
B4 | 8.8 | 1.1 | 69.7
B5 | 19.6 | 0.7 | 113
B6 | 21.2 | 73.5 | 108
B8 | 11.2 | 0.9 | 131
B9 | 64.6 | 1.6 | 132
